Marks after values point to notes of the source that are not given here.
Test system: acute myocardial injury caused by viral (Coxsackie B3) infection in mice
Assay: Survival of mice infected with Coxsackie B3 virus
Assay type: in vivo, BALB/C mice
Conditions: mice n = 20
Method: 0.2 ml of 100×TCID50 CVB3 provided by Zhong Shan Hospital affiliated to Fudan University was injected intra-abdominally and established myocarditis model. Within the following week, the mouse manifested pilo-erection, depilation, emaciation, dullness and death, about half of the tested animals died at the 8th day.
Intravenous injection of the testing drug into the tail vein was carried out the same day of intra-abdominal viral infection in mice, the injection was performed for consecutive 5 days, animal survival rate was monitored, after completion of the experiment, echocardiograph, myocardial pathologic examination, serum troponin determination were carried out.
The death status of model animals in various testing drug group was monitored.
• Normal mice control group, model group and testing drug group were set up; • Normal mice control group (n=10); • Model group (n=20): Prepared buffer solution was injected; • Testing drug group (n=20): […] courses with 20 animals assigned for each group; • Placebo control group (n=20): Intra-abdominal injection of non-CVB3 freeze-thaw cellular supernatant, 0.2 ml/animal. 10.2 Dosage Set Up, Preparation of Testing Drug, Route of Drug Administration, Times of Drug Administration, Concentration and Volume of the Testing Drug • rhNRG-1β was diluted with preparation buffer solution (10 mM PB, 0.2% human serum albumin, 5% mannitol to needed concentration; • Three drug administration groups were set up, intravenous injection for consecutive 3-day, 5-day and 7-day, drug volume for each dose was 0.2 ml/animal; • Drug administration of the model group was intravenous injection into the tail vein of mice, once every day (qd), for consecutive 7 days, drug volume for each dose was 0.2 ml/animal. 7.3 Method of the Experiment 7.3.1 Set Up of Acute Viral Myocariditis Animal Model in Mice

B1: rhNRG-1 β: Recombinant human neuregulin fragment of 61 amino acid (SEQ ID NO:4), 3 disulfide bonds, expressed in E. coli (protein, listed as Homo sapiens)
chain: SHLVKCAEKEKTFCVNGGECFMVKDLSNPSRYLCKCPNEFTGDRCQNYVMASFYKAEELYQ
modifications: disulfide (positions not given here)
- Numbers of survival animals (5 μg/kg (so in the source) iv qd × 5, 1st day, (I)): 20
- Numbers of survival animals (5 μg/kg (so in the source) iv qd × 5, 2nd day, (I)): 20
- Numbers of survival animals (5 μg/kg (so in the source) iv qd × 5, 3rd day, (I)): 20
- Numbers of survival animals (5 μg/kg (so in the source) iv qd × 5, 4th day, (I)): 19
- Numbers of survival animals (5 μg/kg (so in the source) iv qd × 5, 5th day, (I)): 18
- Numbers of survival animals (5 μg/kg (so in the source) iv qd × 5, 6th day, (I)): 15
- Numbers of survival animals (5 μg/kg (so in the source) iv qd × 5, 7th day, (I)): 13
- Numbers of survival animals (5 μg/kg (so in the source) iv qd × 5, killed, (I)): 10
- Numbers of survival animals (7.5 μg/kg iv qd × 5, 1st day, (II)): 20
- Numbers of survival animals (7.5 μg/kg iv qd × 5, 2nd day, (II)): 20
- Numbers of survival animals (7.5 μg/kg iv qd × 5, 3rd day, (II)): 20
- Numbers of survival animals (7.5 μg/kg iv qd × 5, 4th day, (II)): 18
- Numbers of survival animals (7.5 μg/kg iv qd × 5, 5th day, (II)): 17
- Numbers of survival animals (7.5 μg/kg iv qd × 5, 6th day, (II)): 14
- Numbers of survival animals (7.5 μg/kg iv qd × 5, 7th day, (II)): 11
- Numbers of survival animals (7.5 μg/kg iv qd × 5, killed, (II)): 10
- Numbers of survival animals (15 μg/kg iv qd × 5, 1st day, (I)): 20
- Numbers of survival animals (15 μg/kg iv qd × 5, 1st day, (II)): 20
- Numbers of survival animals (15 μg/kg iv qd × 5, 2nd day, (I)): 20
- Numbers of survival animals (15 μg/kg iv qd × 5, 2nd day, (II)): 20
- Numbers of survival animals (15 μg/kg iv qd × 5, 3rd day, (I)): 20
- Numbers of survival animals (15 μg/kg iv qd × 5, 3rd day, (II)): 20
- Numbers of survival animals (15 μg/kg iv qd × 5, 4th day, (I)): 20
- Numbers of survival animals (15 μg/kg iv qd × 5, 4th day, (II)): 19
- Numbers of survival animals (15 μg/kg iv qd × 5, 5th day, (I)): 19
- Numbers of survival animals (15 μg/kg iv qd × 5, 5th day, (II)): 18
- Numbers of survival animals (15 μg/kg iv qd × 5, 6th day, (I)): 17
- Numbers of survival animals (15 μg/kg iv qd × 5, 6th day, (II)): 16
- Numbers of survival animals (15 μg/kg iv qd × 5, 7th day, (I)): 14
- Numbers of survival animals (15 μg/kg iv qd × 5, 7th day, (II)): 13
- Numbers of survival animals (15 μg/kg iv qd × 5, killed, (I)): 13
- Numbers of survival animals (15 μg/kg iv qd × 5, killed, (II)): 13
- Number of survival animal (30 μg/kg iv qd × 3, 1st day, (I)): 20
- Number of survival animals (30 μg/kg iv qd × 3, 1st day, (II)): 20
- Number of survival animal (30 μg/kg iv qd × 3, 2nd day, (I)): 20
- Number of survival animals (30 μg/kg iv qd × 3, 2nd day, (II)): 20
- Number of survival animal (30 μg/kg iv qd × 3, 3rd day, (I)): 20
- Number of survival animals (30 μg/kg iv qd × 3, 3rd day, (II)): 20
- Number of survival animal (30 μg/kg iv qd × 3, 4th day, (I)): 19
- Number of survival animals (30 μg/kg iv qd × 3, 4th day, (II)): 20
- Number of survival animal (30 μg/kg iv qd × 3, 5th day, (I)): 18
- Number of survival animals (30 μg/kg iv qd × 3, 5th day, (II)): 19
- Number of survival animal (30 μg/kg iv qd × 3, 6th day, (I)): 16
- Number of survival animals (30 μg/kg iv qd × 3, 6th day, (II)): 16
- Number of survival animal (30 μg/kg iv qd × 3, 7th day, (I)): 14
- Number of survival animals (30 μg/kg iv qd × 3, 7th day, (II)): 15
- Number of survival animal (30 μg/kg iv qd × 3, killed, (I)): 13
- Number of survival animals (30 μg/kg iv qd × 3, killed, (II)): 15
- Numbers of survival animals (30 μg/kg iv qd × 5, 1st day, (I)): 20
- Numbers of survival animals (30 μg/kg iv qd × 5, 1st day, (II)): 20
- Number of survival animal (30 μg/kg iv qd × 5, 1st day, Example 5 (I)): 20
- Number of survival animals (30 μg/kg iv qd × 5, 1st day, Example 5 (II)): 20
- Numbers of survival animals (30 μg/kg iv qd × 5, 2nd day, (I)): 20
- Numbers of survival animals (30 μg/kg iv qd × 5, 2nd day, (II)): 20
- Number of survival animal (30 μg/kg iv qd × 5, 2nd day, Example 5 (I)): 20
- Number of survival animals (30 μg/kg iv qd × 5, 2nd day, Example 5 (II)): 20
- Numbers of survival animals (30 μg/kg iv qd × 5, 3rd day, (I)): 20
- Numbers of survival animals (30 μg/kg iv qd × 5, 3rd day, (II)): 20
- Number of survival animal (30 μg/kg iv qd × 5, 3rd day, Example 5 (I)): 20
- Number of survival animals (30 μg/kg iv qd × 5, 3rd day, Example 5 (II)): 20
- Numbers of survival animals (30 μg/kg iv qd × 5, 4th day, (I)): 20
- Numbers of survival animals (30 μg/kg iv qd × 5, 4th day, (II)): 20
- Number of survival animal (30 μg/kg iv qd × 5, 4th day, Example 5 (I)): 20
- Number of survival animals (30 μg/kg iv qd × 5, 4th day, Example 5 (II)): 20
- Numbers of survival animals (30 μg/kg iv qd × 5, 5th day, (I)): 20
- Numbers of survival animals (30 μg/kg iv qd × 5, 5th day, (II)): 19
- Number of survival animal (30 μg/kg iv qd × 5, 5th day, Example 5 (I)): 19
- Number of survival animals (30 μg/kg iv qd × 5, 5th day, Example 5 (II)): 19
- Numbers of survival animals (30 μg/kg iv qd × 5, 6th day, (I)): 18
- Numbers of survival animals (30 μg/kg iv qd × 5, 6th day, (II)): 18
- Number of survival animal (30 μg/kg iv qd × 5, 6th day, Example 5 (I)): 19
- Number of survival animals (30 μg/kg iv qd × 5, 6th day, Example 5 (II)): 19
- Numbers of survival animals (30 μg/kg iv qd × 5, 7th day, (I)): 17
- Numbers of survival animals (30 μg/kg iv qd × 5, 7th day, (II)): 17
- Number of survival animal (30 μg/kg iv qd × 5, 7th day, Example 5 (I)): 18
- Number of survival animals (30 μg/kg iv qd × 5, 7th day, Example 5 (II)): 18
- Numbers of survival animals (30 μg/kg iv qd × 5, killed, (I)): 16*
- Numbers of survival animals (30 μg/kg iv qd × 5, killed, (II)): 17*
- Number of survival animal (30 μg/kg iv qd × 5, killed, Example 5 (I)): 17*
- Number of survival animals (30 μg/kg iv qd × 5, killed, Example 5 (II)): 18*
- Number of survival animal (30 μg/kg iv qd × 7, 1st day, (I)): 20
- Number of survival animals (30 μg/kg iv qd × 7, 1st day, (II)): 20
- Number of survival animal (30 μg/kg iv qd × 7, 2nd day, (I)): 20
- Number of survival animals (30 μg/kg iv qd × 7, 2nd day, (II)): 20
- Number of survival animal (30 μg/kg iv qd × 7, 3rd day, (I)): 20
- Number of survival animals (30 μg/kg iv qd × 7, 3rd day, (II)): 20
- Number of survival animal (30 μg/kg iv qd × 7, 4th day, (I)): 20
- Number of survival animals (30 μg/kg iv qd × 7, 4th day, (II)): 20
- Number of survival animal (30 μg/kg iv qd × 7, 5th day, (I)): 20
- Number of survival animals (30 μg/kg iv qd × 7, 5th day, (II)): 20
- Number of survival animal (30 μg/kg iv qd × 7, 6th day, (I)): 19
- Number of survival animals (30 μg/kg iv qd × 7, 6th day, (II)): 19
- Number of survival animal (30 μg/kg iv qd × 7, 7th day, (I)): 19

From patent US9555076B2, “Neuregulin based methods and compositions for treating cardiovascular diseases” (Zensun (Shanghai) Science & Technology, Co., Ltd., priority 2002, dated 2017)
